{"source": "paper PMC6056074", "target": "HLA-B*44:05 (human)", "assay": "flow cytometry on cells; peptide receptivity of surface HLA-B on TAP-sufficient CEM cells: 100 μM peptide in medium at 26°C for 2h, then 20 μg/ml brefeldin A at 37°C for 2h; W6/32 staining, signal of cells without exogenous HLA-B subtracted; read-out (MFI with peptide - MFI without peptide)/MFI with peptide*100"}
{"binder": "EEFGRAFSF", "note": "[… (EF10), B*44:05-restricted epitope]", "values": [{"measurement": "percent of cell surface HLA-B that is peptide receptive", "result": 5, "unit": "%"}]}
